This passage reports EC50, Kd and IC50 results from patent US20200369770A1 (NANJING LEGEND BIOTECH, published 2020).

Test [1] deals with T1, human LAG-3 expressed on CHO cells (human, UniProt P18627 29-525).
T1 construct: also called CHO cells expressing human LAG-3
T1 sequence: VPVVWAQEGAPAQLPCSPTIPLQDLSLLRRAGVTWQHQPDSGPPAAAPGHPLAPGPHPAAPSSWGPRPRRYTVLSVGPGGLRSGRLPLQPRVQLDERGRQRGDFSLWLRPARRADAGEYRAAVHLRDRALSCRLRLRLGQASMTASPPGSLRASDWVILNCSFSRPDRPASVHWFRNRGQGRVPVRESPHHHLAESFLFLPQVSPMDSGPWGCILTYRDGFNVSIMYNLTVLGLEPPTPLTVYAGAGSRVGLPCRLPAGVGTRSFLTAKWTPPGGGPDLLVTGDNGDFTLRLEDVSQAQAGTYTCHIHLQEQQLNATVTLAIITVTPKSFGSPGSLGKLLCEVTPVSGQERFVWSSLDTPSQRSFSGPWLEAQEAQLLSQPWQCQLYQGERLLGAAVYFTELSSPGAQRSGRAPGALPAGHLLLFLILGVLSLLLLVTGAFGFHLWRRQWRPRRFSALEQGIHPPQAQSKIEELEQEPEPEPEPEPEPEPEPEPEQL
In words: FACS on CHO cells expressing human LAG-3; column LAG-3 / Cell binding (EC50 nM). As for the experimental part:
The mixture was equilibrated for 30 minutes at room temperature, and washed three times with FACS buffer (PBS containing 1% BSA). FITC-conjugated anti-human Fc antibody (Jackson ImmunoResearch) used as secondary antibody was then added and incubated for 15 minutes at room temperature. Cells were washed again with FACS buffer and analyzed by flow cytometry. Data was analyzed with PRISM™ (GraphPad Software, San Diego, Calif.) using non-linear regression, and EC₅₀ values were calculated.

Another test concerns the target T2, His-tagged LAG-3 protein (Homo sapiens (Human), UniProt P18627 29-450, limits assumed).
T2 construct: SPR analyte; not shown: His tag
T2 sequence: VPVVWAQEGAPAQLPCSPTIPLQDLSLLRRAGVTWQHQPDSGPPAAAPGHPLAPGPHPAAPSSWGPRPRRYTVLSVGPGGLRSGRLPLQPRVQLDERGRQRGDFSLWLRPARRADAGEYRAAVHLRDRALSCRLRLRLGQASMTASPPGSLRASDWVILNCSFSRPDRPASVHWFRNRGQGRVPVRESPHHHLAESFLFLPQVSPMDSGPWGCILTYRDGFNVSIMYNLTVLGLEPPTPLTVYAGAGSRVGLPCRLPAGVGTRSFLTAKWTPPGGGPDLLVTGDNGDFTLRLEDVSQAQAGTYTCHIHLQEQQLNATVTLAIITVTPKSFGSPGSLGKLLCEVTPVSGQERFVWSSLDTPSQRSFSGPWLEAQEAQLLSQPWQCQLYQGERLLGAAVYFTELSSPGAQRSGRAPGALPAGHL
As to the kind of experiment: SPR (BIACORE T200), His-tagged LAG-3 as analyte over immobilized binder; column LAG-3 / Affinity (nM). An excerpt: Binding curves at different analyte concentrations were used to calculate the kinetic parameters kₒₙ, koff and Kd (FIGS. 14A-14K).

The target in test [2] is T3, LAG-3 Fc fusion protein having a biotin-label (Homo sapiens (Human), UniProt P18627 29-450, limits assumed, biotin label (site not stated)).
T3 construct: not shown: Fc
T3 sequence: T2 sequence
As to the kind of experiment: FACS competition, binding of biotinylated LAG-3 Fc to MHC class II on A375 cells blocked; column LAG-3 / Ligand competition (IC50 nM). As for the experimental part:
(§1) Each mixture was equilibrated for 30 minutes at room temperature, and washed three times with FACS buffer (PBS containing 1% BSA). PE/Cy5 Streptavidin secondary antibody was then added to each mixture and incubated for 15 minutes at room temperature. Subsequently, the cells were washed again with FACS buffer and analyzed by flow cytometry. Data was analyzed with PRISM™ (GraphPad Software, San Diego, Calif.) using non-linear regression, and IC₅₀ values were calculated.

The target of test [3] is T4, human TIGIT expressed on CHO cells (human, UniProt Q495A1 22-244).
T4 construct: also called CHO cells expressing human TIGIT
T4 sequence: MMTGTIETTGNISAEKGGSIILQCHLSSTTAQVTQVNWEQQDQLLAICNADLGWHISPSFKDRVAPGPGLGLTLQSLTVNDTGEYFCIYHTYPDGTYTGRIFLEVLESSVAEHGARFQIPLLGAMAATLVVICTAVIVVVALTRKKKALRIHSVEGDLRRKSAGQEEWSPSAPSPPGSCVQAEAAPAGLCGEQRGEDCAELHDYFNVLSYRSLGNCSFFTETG
As to the kind of experiment: FACS on CHO cells expressing human TIGIT; column TIGIT / Cell binding (EC50 nM). As for the experimental part: The mixture was equilibrated for 30 minutes at room temperature, and washed three times with FACS buffer (PBS containing 1% BSA). FITC-conjugated anti-human Fc antibody (Jackson ImmunoResearch) used as secondary antibody was then added and the mixture was incubated for 15 minutes at room temperature. Cells were washed again with FACS buffer and analyzed by flow cytometry. Data were analyzed with PRISM™ (GraphPad Software, San Diego, Calif.) using non-linear regression, and EC₅₀ values were calculated.

The target in another test is T5, His-tagged TIGIT protein (Homo sapiens (Human), UniProt Q495A1 22-141).
T5 construct: SPR analyte; not shown: His tag
T5 sequence: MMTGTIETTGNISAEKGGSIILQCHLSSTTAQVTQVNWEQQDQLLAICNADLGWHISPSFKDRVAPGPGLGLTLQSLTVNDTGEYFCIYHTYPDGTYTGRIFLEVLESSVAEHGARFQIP
As to the kind of experiment: SPR (BIACORE T200), His-tagged TIGIT as analyte over captured binder; column TIGIT / Affinity (nM). An excerpt:
Binding curves at different analyte concentrations were used to calculate the kinetic parameters kₒₙ, koff and Kd (FIGS. 13A-13K).
In general terms: SPR reads the build-up and loss of mass on a sensor chip optically.

The target in test [4] is T4, human TIGIT expressed on CHO cells. In words: FACS competition on CHO cells expressing human TIGIT, blocked ligand biotinylated hCD155 Fc; column TIGIT / Ligand competition (IC50 nM). As for the experimental part:
as §1

B1: VHH2 HCAb (antibody, human IgG4 S228P, V domains shown)
VH: EVQLVESGGGLVQPGGSLRLSCAASGYTVSSYCMGWFRQAPGKGREGVSAIDSDGSVSYADSVKGRFTISKDNSKNTLYLQMNSLRAEDTAVYFCAADLCWVDQDQGEYNTWGQGTLVTVSS
notes: positive control for LAG-3; also called anti-LAG-3 VHH2 HCAb
By EC50 is commonly meant the concentration needed to bring the measured effect to its halfway point. Lower therefore signals greater potency. What is called Kd is the equilibrium constant for the complex coming apart. What is called IC50 is the point on the concentration scale where inhibition reaches its midpoint. A high value points to weaker potency in that assay. B1 gave an EC50 in test [1] of 1.82 nM. For the same molecule, in the test with His-tagged LAG-3 protein, the affinity, expressed as Kd, was 0.45 nM. In test [2], this molecule came in with an IC50 of 11 nM.

B2: AS19584VH28 HCAb (antibody, human IgG4 S228P, V domains shown)
VH: EVQLVESGGGLVQPGGSLRLSCAASGYKYGVYSMGWFRQAPGKGLEGVSAICSGGRTTYSDSVKGRFTISRDNSNQILYLQMNSLRAEDTAVYYCAARPLWTGDCDLSSSWYKTWGQGTLVTVSS
notes: positive control for TIGIT; also called anti-TIGIT AS19584VH28 HCAb
As to B2, a half-maximal effect in test [3] (EC50) was put at 4.99 nM. The molecule also showed a Kd in the test with His-tagged TIGIT protein of 0.44 nM. In test [4], this molecule displayed an IC50 of 8.61 nM.
